Experimental data taken from paper PMC10153262 (bioRxiv, 2023).

Legend:
Test in all cases: pull-down
[1] = biological target: Myristoylated GINIP (myr-GINIP), C-terminally His-tagged (human, UniProt Q9UPV7 1-400, myristoylated (co-expression with N-myristoyl transferase))
GINIP ∆N16 = GINIP ∆N16 (human, UniProt Q9UPV7 17-400)
[2] = biological target: GINIP WT, C-terminally His-tagged (pET21a(+)-GINIP-His) (human, UniProt Q9UPV7 1-400)

Measured: binding result

Sequence of Myristoylated GINIP (myr-GINIP), C-terminally His-tagged (Q9UPV7 whole entry): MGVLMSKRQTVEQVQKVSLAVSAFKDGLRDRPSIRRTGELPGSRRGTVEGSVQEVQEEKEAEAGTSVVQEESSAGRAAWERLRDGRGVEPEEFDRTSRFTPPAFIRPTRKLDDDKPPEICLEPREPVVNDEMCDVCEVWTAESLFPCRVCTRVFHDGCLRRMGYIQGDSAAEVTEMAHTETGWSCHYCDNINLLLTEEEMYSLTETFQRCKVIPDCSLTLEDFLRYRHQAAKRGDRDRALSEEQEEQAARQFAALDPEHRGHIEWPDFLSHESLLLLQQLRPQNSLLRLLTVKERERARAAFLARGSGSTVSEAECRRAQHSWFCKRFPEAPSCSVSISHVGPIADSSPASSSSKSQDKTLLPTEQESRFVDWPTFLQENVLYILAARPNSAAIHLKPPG
Sequence of GINIP WT, C-terminally His-tagged (pET21a(+)-GINIP-His) (Q9UPV7 whole entry): as above
Sequence of GINIP ∆N16 (Q9UPV7 17-400): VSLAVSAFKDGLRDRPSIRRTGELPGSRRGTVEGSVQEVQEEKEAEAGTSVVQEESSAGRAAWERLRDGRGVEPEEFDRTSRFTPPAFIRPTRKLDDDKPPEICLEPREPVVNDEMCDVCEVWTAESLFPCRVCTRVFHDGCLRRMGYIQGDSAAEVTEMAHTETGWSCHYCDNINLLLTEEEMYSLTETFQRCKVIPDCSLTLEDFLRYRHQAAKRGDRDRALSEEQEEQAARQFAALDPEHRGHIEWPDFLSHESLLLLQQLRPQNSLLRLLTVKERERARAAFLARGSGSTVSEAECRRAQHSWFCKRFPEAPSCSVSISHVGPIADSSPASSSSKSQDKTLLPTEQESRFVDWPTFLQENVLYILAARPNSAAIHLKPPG

B1: GST-Gαi3 (natural protein)
chain: MGCTLSAEDKAAVERSKMIDRNLREDGEKAAKEVKLLLLGAGESGKSTIVKQMKIIHEDGYSEDECKQYKVVVYSNTIQSIIAIIRAMGRLKIDFGEAARADDARQLFVLAGSAEEGVMTSELAGVIKRLWRDGGVQACFSRSREYQLNDSASYYLNDLDRISQTNYIPTQQDVLRTRVKTTGIVETHFTFKELYFKMFDVGGQRSERKKWIHCFEGVTAIIFCVALSDYDLVLAEDEEMNRMHESMKLFDSICNNKWFTDTSIILFLNKKDLFEEKIKRSPLTICYPEYTGSNTYEEAAAYIQCQFEDLNRRKDTKEVYTHFTCATDTKNVQFVFDAVTDVIIKNNLKECGLY
binds: all assays above
